Consider four molecules from PMC7655957, “A tunable LIC1-adaptor interaction modulates dynein activity in a cargo-specific manner” (Nature Communications, 2020).

B1: FIP3_(206–270), EF-hand pair of Rab11 family-interacting protein 3 (domain or fragment, human, UniProt O75154-1 206-270, looked up)
chain: RLRAVFDALDGDGDGFVRIEDFIQFATVYGAEQVKDLTKYLDPSGLGVISFEDFYQGITAIRNGD
notes: Cloned into pMAL-c2X
B2: NIN_(1–87), first EF-hand pair of Ninein (domain or fragment, human, UniProt Q8N4C6-1 1-87, looked up)
chain: MDEVEQDQHEARLKELFDSFDTTGTGSLGQEELTDLCHMLSLEEVAPVLQQTLLQDNLLGRVHFDQFKEALILILSRTLSNEEHFQE
notes: NIN (Ninein), human, UniProt Q8N4C6-1, residues 1-87 (EF-hand pair); Cloned into pMAL-c2X
B3: MBP-CRACR2a_(47–122), EF-hand pair of calcium release-activated calcium channel regulator 2A (domain or fragment, human, UniProt Q9BSW2-1 47-122, looked up)
chain: GQLVMLRKAQEFFQTCDAEGKGFIARKDMQRLHKELPLSLEELEDVFDALDADGNGYLTPQEFTTGFSHFFFSQNN
notes: Cloned into pMAL-c2X; the MBP tag was not removed for the ITC experiments; also called Ca^2+-CRACR2a; not shown: MBP, N-terminal, kept

Common to all, as to details: both partners purified
Assay [1] deals with T1, MBP-LIC1FL, full-length dynein light intermediate chain-1 (human, UniProt Q9Y6G9 1-523).
T1 construct: cytoplasmic dynein-1 light intermediate chain-1 (LIC1), human, full length; also called MBP-LICFL; full-length LIC1
T1 sequence (Q9Y6G9 whole entry): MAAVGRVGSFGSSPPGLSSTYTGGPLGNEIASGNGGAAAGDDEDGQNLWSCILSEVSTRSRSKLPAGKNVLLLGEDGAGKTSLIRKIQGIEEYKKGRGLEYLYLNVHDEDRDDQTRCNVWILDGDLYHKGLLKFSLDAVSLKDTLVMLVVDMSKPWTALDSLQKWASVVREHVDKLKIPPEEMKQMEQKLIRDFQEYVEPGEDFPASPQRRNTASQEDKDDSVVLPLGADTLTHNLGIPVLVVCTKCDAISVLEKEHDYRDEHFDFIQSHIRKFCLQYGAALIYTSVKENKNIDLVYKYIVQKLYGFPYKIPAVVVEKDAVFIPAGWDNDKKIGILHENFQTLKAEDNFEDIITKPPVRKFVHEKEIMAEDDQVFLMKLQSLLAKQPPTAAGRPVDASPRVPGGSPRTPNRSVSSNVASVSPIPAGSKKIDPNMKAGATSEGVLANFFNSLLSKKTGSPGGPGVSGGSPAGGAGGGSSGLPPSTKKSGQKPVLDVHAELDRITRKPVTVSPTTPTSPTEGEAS
Put plainly: ITC; EF-hand pairs titrated into MBP-LIC1FL; 20 mM HEPES (pH 7.5), 100 mM NaCl, 0.5 mM TCEP, 5 mM CaCl2; 20 or 30 °C. A general note: In ITC the heat of successive injections is recorded.

Assay [2] has as its target B3. Kind of assay: ITC; EF-hand pairs titrated into LIC1_(433–458); 20 mM HEPES (pH 7.5), 100 mM NaCl, 0.5 mM TCEP; 5 mM CaCl2 or 5 mM EGTA as indicated in the figure; 20 or 30 °C.
Assay [3] addresses B2. The description is as above.
Assay [4] concerns the target B1. Described as above.

The Kd is the equilibrium constant for the complex coming apart. What is called stoichiometry N is the number of molecules, sites or subunits per partner or assembly. Turning to B1, in assay [1], the Kd was around 6.1 µM and the “stoichiometry N” value is around 1.
For the molecule B2, in assay [1], the Kd is around 12 µM and the “stoichiometry N” value is around 1.
On the same counts, the results for B3 are around 3.6 µM and around 1.

B4: LIC1_(433–458), amphipathic helix of the dynein light intermediate chain-1 (peptide, UniProt Q9Y6G9 433-458, looked up)
peptide: NMKAGATSEGVLANFFNSLLSKKTGS
notes: Its concentration was determined with fluorescamine-labeled peptide; also called LIC1 helix; source: peptide after reverse-phase purification
Take B4: the Kd in assay [2] was around 1400 nM; in assay [3], around 5.4 µM; in assay [4], around 2000 nM.
